Here are results for one molecule from article PMC3510509, “Binding of two DNA molecules by type II topoisomerases for decatenation” (Nucleic Acids Research, 2012).

For the experiment, the target named is T1, Mycobacterium smegmatis DNA gyrase subunit A (GyrA) (M. smegmatis, UniProt P48354 1-842).
T1 construct: DNA gyrase subunit A, Mycobacterium smegmatis; also called MsGyrA; M. smegmatis GyrA
The experiment is described as follows: cross-linking; glutaraldehyde; gyrase subunits mixed 1:1 in supercoiling reaction buffer, on ice 30 min, then cross-linked at 37°C for 30 min; products resolved on SDS-PAGE, silver stained. As to conditions: both partners purified.

B1: Mycobacterium smegmatis DNA gyrase subunit B (GyrB) (natural protein, M. smegmatis, UniProt A0QNE0 1-675, looked up)
chain: MAAQKNNAPKEYGADSITILEGLEAVRKRPGMYIGSTGERGLHHLIWEVVDNAVDEAMAGFATRVDVKIHADGSVEVRDDGRGIPVEMHATGMPTIDVVMTQLHAGGKFDGETYAVSGGLHGVGVSVVNALSTRLEATVLRDGYEWFQYYDRSVPGKLKQGGETKETGTTIRFWADPEIFETTDYNFETVARRLQEMAFLNKGLTIELTDERVTAEEVVDDVVKDTAEAPKTADEKAAEATGPSKVKHRVFHYPGGLVDYVKHINRTKTPIQQSIIDFDGKGPGHEVEIAMQWNAGYSESVHTFANTINTHEGGTHEEGFRAALTSVVNRYAKDKKLLKDKDPNLTGDDIREGLAAVISVKVAEPQFEGQTKTKLGNTEVKSFVQKICNEQLQHWFEANPAEAKTVVNKAVSSAQARIAARKARELVRRKSATDIGGLPGKLADCRSTDPSKSELYVVEGDSAGGSAKSGRDSMFQAILPLRGKIINVEKARIDRVLKNTEVQSIITALGTGIHDEFDISKLRYHKIVLMADADVDGQHISTLLLTLLFRFMKPLVENGHIFLAQPPLYKLKWQRSEPEFAYSDRERDGLLEAGRAAGKKINVDDGIQRYKGLGEMDAKELWETTMDPSVRVLRQVTLDDAAAADELFSILMGEDVEARRSFITRNAKDVRFLDV
notes: DNA gyrase subunit B, Mycobacterium smegmatis, wild type; also called MsGyrB; M. smegmatis GyrB
Take B1: the binding result was “binds”.
